The target in this experiment is T1, NKG2D (human, UniProt P26718 78-216, limits assumed).
T1 construct: XENP25379 (human) and XENP25380 (cynomolgus) were the panning antigens; also called Recombinant human NKG2D (XENP25379); CD314
T1 sequence (looked up): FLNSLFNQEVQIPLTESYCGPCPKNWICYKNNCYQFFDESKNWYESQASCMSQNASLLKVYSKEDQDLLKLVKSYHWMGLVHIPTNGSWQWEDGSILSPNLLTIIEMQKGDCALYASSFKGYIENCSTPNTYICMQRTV
As to the kind of experiment: ELISA of phage clones on NKG2D. In general terms: ELISA stands for enzyme-linked immunosorbent assay.

B1: 1D2B4[NKG2D] (antibody, V domains shown)
VH: EVQLLESGGGLVQPGGSLRLSCAASGFTFSSFGMSWVRQAPGKGLEWVSTISGSGSTTYYADSVKGRFTISRDNSKNTLYLQMNSLRAEDTAVYYCAKGVFSEWHYYFDYWGQGTLVTVSS
VL: not shown
B1: the binding result is listed as “binds”.

(Values after US20230151095A1 (Xencor, published 2023).)
